Key:
[1] = biological target: CEP-BSA (21:1 molar ratio) (bovine (from the name BSA)) (UniProt P02769); experiment: BLI; Octet K2; CEP-BSA or fibrinogen amine-coupled to AR2G biosensor; active αD I-domain 50-1000 nM in the mobile phase; 20 mM HEPES, 150 mM NaCl, 1 mM CaCl2, 1 mM MgCl2, 0.02% Tween-20, 0.02% BSA, pH 7.5; KD from a plot of response at equilibrium against concentration
Human fibrinogen (human) = Human fibrinogen (human) (UniProt P02671); experiment: as above
Chain of UniProt P02671 (P02671 36-866, chain 1 of 3): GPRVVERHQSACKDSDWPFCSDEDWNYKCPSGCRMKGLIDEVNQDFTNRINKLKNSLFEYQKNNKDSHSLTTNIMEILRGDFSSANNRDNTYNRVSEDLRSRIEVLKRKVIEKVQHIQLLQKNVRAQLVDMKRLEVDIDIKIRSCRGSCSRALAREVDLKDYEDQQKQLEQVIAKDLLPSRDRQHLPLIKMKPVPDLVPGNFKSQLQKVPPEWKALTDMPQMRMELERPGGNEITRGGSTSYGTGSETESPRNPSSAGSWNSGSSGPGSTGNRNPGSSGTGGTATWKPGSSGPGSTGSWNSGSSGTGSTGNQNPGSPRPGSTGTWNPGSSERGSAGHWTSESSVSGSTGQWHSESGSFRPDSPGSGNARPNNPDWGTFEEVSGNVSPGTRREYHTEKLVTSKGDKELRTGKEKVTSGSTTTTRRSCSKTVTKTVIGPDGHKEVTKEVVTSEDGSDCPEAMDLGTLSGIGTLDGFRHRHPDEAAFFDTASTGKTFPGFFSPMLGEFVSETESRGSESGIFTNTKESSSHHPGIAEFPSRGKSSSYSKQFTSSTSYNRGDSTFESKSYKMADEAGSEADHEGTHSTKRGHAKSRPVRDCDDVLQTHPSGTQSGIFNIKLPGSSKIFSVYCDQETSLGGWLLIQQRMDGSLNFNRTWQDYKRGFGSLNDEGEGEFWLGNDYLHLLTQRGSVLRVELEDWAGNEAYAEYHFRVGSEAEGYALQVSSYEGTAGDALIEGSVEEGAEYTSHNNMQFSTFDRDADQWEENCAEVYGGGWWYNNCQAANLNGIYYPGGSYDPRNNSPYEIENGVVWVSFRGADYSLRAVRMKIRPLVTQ
Chain of UniProt P02671 (P02675 45-491, chain 2 of 3, further chain): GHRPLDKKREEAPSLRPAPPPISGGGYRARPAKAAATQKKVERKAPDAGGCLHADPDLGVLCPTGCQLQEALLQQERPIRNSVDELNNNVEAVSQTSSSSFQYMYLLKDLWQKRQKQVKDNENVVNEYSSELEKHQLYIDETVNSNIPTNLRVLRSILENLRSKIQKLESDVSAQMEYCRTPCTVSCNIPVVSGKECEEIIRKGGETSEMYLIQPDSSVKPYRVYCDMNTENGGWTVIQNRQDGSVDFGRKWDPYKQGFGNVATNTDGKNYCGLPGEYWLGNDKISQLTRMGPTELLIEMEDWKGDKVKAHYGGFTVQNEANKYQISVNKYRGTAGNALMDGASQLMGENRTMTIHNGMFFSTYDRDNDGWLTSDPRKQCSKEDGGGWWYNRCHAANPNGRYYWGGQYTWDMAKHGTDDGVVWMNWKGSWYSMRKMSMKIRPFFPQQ
Chain of UniProt P02671 (P02679 27-453, chain 3 of 3, further chain): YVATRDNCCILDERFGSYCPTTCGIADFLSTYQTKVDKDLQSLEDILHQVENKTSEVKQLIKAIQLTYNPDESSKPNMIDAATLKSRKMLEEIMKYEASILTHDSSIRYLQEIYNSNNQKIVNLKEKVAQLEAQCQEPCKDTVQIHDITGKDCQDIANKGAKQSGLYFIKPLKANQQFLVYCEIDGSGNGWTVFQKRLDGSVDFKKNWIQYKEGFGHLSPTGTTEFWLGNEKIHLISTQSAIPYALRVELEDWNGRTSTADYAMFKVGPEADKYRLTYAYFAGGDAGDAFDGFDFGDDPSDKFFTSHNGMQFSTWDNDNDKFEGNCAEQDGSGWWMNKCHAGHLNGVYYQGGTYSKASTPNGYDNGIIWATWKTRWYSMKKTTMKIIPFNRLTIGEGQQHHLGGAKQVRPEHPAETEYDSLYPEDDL

Substance: recombinant αD I-domain in an active conformation (domain or fragment)
- Kd [1]: 100 nM
- Kd (Human fibrinogen (human)): 220 nM

From publication PMC9204313
